Source: US20080292609A1, “Use of Arginase in Combination with 5FU and Other Compounds for Treatment of Human Malignancies” (priority 2007, published 2008)

Columns and labels:
[1] = Arginase specific activity; type: biochemical; settings: purified arginase sample, or after pegylation with mPEG-SPA MW 5,000 (mole ratio 1:50)
Procedure: The purified Arginase as prepared using the methods described above was used for pegylation. Using the previous examples to illustrate the method, an arginase sample with specific activity=518 I.U./mg was dissolved in PBS buffer before carrying out pegylation.
The mPEG-SPA (cat. no. 2M4MOH01, Nektar, USA), MW 5,000 (5.82 g) was added into 555 ml of the purified Arginase (813.64 mg, 1.466 mg/ml) solution slowly in a 1 L beaker and then stirred for 2 h 40 min at room temperature (mole ratio of Arginase:mPEG-SPA=1:50). The mixture was then dialyzed extensively by ultra-dialysis against 15 L of PBS buffer using the F50(S) capillary dialyzer (Fresenius Medical Care, Bad Homburg, Germany) to remove all the unincorporated PEG. The mPEG-SPA uses amino groups of lysines and the N-terminus of the protein as the site of modification. In this example, the measured specific activity of the pegylated Arginase was as high as 592 I.U./mg.

[2] = ½-life determination of pegylated Arginase in vitro in human blood plasma; type: in vitro ADME; settings: 37° C., 0.24 mg/ml pegylated Arginase
Procedure: As used herein, the term “half-life” (½-life) refers to the time that would be required for the concentration of the Arginase in human plasma in vitro, to fall by half.
Purified Arginase (1 mg) was dissolved in 1 ml of 125 mM borate buffer solution (pH 8.3) on ice. Activated PEG (mPEG-SPA, MW 5,000) (7.14 mg) was added into the protein solution slowly at a mole ratio of Arginase:PEG=1:50. The mixture was stirred on ice for 2.5 h.
Pegylated Arginase (305.6 μl) at a concentration of 1 mg/ml was added into human plasma (1 ml) and the final concentration of pegylated Arginase was 0.24 mg/ml. The mixture was divided into 20 aliquots in eppendorf tubes (65 μl mixture in each eppendorf tube) and then incubated at 37° C. A 1-2 μl portion of the mixture from each eppendorf tube was used to test the Arginase activity. In this example, the ½-life was determined to be approximately 3 days. It took about 3 days to reduce the relative activity from 100% to 50%.

B1: arginase: Recombinant human Arginase I with N-terminal 6xHis tag (SEQ ID NO: 3), produced in B. subtilis LLC101 (protein, listed as Homo sapiens)
chain: MHHHHHHMSAKSRTIGIIGAPFSKGQPRGGVEEGPTVLRKAGLLEKLKEQECDVKDYGDLPFADIPNDSPFQIVKNPRSVGKASEQLAGKVAQVKKNGRISLVLGGDHSLAIGSISGHARVHPDLGVIWVDAHTDINTPLTTTSGNLHGQPVSFLLKELKGKIPDVPGFSWVTPCISAKDIVYIGLRDVDPGEHYILKTLGIKYFSMTEVDRLGIGKVMEETLSYLLGRKKRPIHLSFDVDGLDPSFTPATGTPVVGGLTYREGLYITEEIYKTGLLSGLDIMEVNPSLGKTPEEVTRTVNTAVAITLACFGLAREGNHKPIDYLNPPK
modifications: N-terminal 6xHis tag
Question: With B1 as the molecule, how does the specific activity [1] read?
Answer: Its specific activity is 518 I.U./mg.

B2: pegylated Arginase: Arginase I modified by pegylation with mPEG-SPA MW 5,000 to increase stability and minimize immunoreactivity (protein, UniProt P05089 1-322, looked up)
Arginase-1: MSAKSRTIGIIGAPFSKGQPRGGVEEGPTVLRKAGLLEKLKEQECDVKDYGDLPFADIPNDSPFQIVKNPRSVGKASEQLAGKVAEVKKNGRISLVLGGDHSLAIGSISGHARVHPDLGVIWVDAHTDINTPLTTTSGNLHGQPVSFLLKELKGKIPDVPGFSWVTPCISAKDIVYIGLRDVDPGEHYILKTLGIKYFSMTEVDRLGIGKVMEETLSYLLGRKKRPIHLSFDVDGLDPSFTPATGTPVVGGLTYREGLYITEEIYKTGLLSGLDIMEVNPSLGKTPEEVTRTVNTAVAITLACFGLAREGNHKPIDYLNPPK
modifications: mPEG-SPA 5 kDa
Question: Which results are given for B2?
Answer: specific activity [1]: 592 I.U./mg; ½-life (time for relative Arginase activity to fall from 100% to 50%) [2]: approximately 3 days
